Experimental data: patent US20150258217A1, “Methods of Synthesizing and Using Peg-Like Fluorochromes” (THE GENERAL HOSPITAL CORPORATION, priority 2012, published 2015)

Legend:
[1] = PN and peptide size (volume, diameter) by FPLC gel filtration (Superdex 200, globular protein standards); assay type: physicochemical; details: Table 5; globular protein equivalent molecular weight
Protocol: DOTA-Lys-Cys(IR783)-NH2 is then dissolved in DMSO, with 2 equivalents of an NHS ester of PEG and 6 equivalents of DIPEA. The reaction was at room temperature for 5 days. Product was purified by reverse phase HPLC separation. Product molecular weight was by matrix-assisted laser desorption ionization time-of-flight mass spectrometry (MALDI-TOF MS), with product molecular volume by size exclusion FPLC using globular protein standards (GE Healthcare life science AKTApurifier 10).
The mass spec of low molecular weights (MW) were obtained by MS-ESI Micromass (Waters) and high MW molecules were determined through MALDI-TOF analyses at the Tufts University Core Facility. RP-HPLC (Varian ProStar detector and delivery modules) employed an eluant A (0.1% TFA/water) and eluant B (0.1% TFA and 9.9% water in acetonitrile). Probe size (volume) was determined by FPLC using an ÄKTA Purifier 10 and Superdex™ 200 10/300GL column (GE Healthcare) with a running buffer of 0.05 M sodium phosphate, 0.15 M NaCl (0.1% Tween, pH 7.2) and flow rate of 0.8 ml/min. Standards (GE Healthcare) were Ferritin, Ribonuclease A, Carbonic Anhydrase, and Conalbumin and Blue Dextran 2000. To obtain probe volumes, Mr (apparent molecular weight based on size exclusion retention) was plotted versus Kav. Kav=(Ve−Vo)/(Vt−Vo), Vt=total volume, Ve=elution volume, Vo=void volume.
The column was calibrated with globular protein standards, and globular protein equivalent molecular weights (in kDa) were obtained (Table 5, column 5). These were converted to PN diameters in nm using the relationship: Radius in nm=[…] where M is the molecular weight of a globular protein expressed in daltons (see Erickson, “Size and Shape of Protein Molecules at the Nanometer Level Determined by Sedimentation, Gel Filtration, and Electron Microscopy”, Biological Procedures Online 2009, 11(1): 32-50). PN's diameters ranged from 3.0 to 11.8 nm (see FIG. 23a). Using PEG's of 5 kDa and 30 kDa, selected for their low polydispersity, PN's were synthesized using IR-783, Cy3 and Fluorescein (see FIG. 22a) and their sizes determined (see FIGS. 23a, 23b, 23c). With the 5 kDa PEG and these three fluorochromes (see the magenta chromatograms in FIGS. 22a, 23b and 23c) PN diameters were 4.3 nm. With the 30 kDa PEG and these three fluorochromes (blue chromatograms, 23a, 23b, 23c), PN diameters were now 10.0 nm. For reference, the diameter of a 67 kDa albumin determined by this method was 5.4 nm.

[2] = system: mCherry/HT29 tumor sections; assay: Confocal microscopy of tumor sections (tumor retention phase); assay type: in vivo, mouse; details: 48 hours post IV injection
Protocol: The mCherry-HT-29 tumor sample was collected at 48 hours post IV injection with PN(497)10.0, and then cryosectioned with thickness of 5 μm. The tumor section was fixed with 4% PFA, mounted with 90% glycerol/10% PBS (at pH 8.5 for best fluorescein fluorescence), and stained with DAPI. Confocal imaging was performed on a Zeiss LSM510 laser scanning confocal microscope (Zeiss Axiophot, Carl Zeiss, Jena, Germany). A 405 nm diode Laser, 488 nm argon laser, and 561 nm diode laser were used for the excitation of DAPI, fluorescein, and mCherry, respectively. A primary dichroic HFT 405/488/561 was used in combination with an LP420 emission filter for DAPI, BP505-530 for fluorescein, and LP575 for mCherry. Images were analyzed with ImageJ64.

[3] = system: HT-29, a human colon carcinoma cell line; assay: PN and peptide binding to cells (non-specific binding, FACS); assay type: cell-based; details: HT-29 cells, 30 min at 37° C., FACS
Protocol: HT-29, a human colon carcinoma cell line, was from the American Tissue Culture Collection and maintained according to their instructions. Cells were seeded on 24-well plates at 5×10^5 cells/well in culture medium (RPMI 1640 with 10% FBS) the day before the assay. The day of assay, medium was removed, wells rinsed twice with DPBS (+Ca, +Mg), and 100 μl of 2% FBS/DPBS (+Ca, +Mg) added. 100 μL of Nanoprobes (2 μM) in DPBS (+Ca, +Mg) was added to cells and incubated for 30 min at 37° C. (Probe concentrations were determined spectrophotometrically (783 nm, extinction coefficient of 314 471 cm^−1 M^−1 for IR-783; 497 nm, extinction coefficient of 68 000 cm^−1 M^−1 for Fluorescein; 545 nm, extinction coefficient of 150 000 cm^−1 M^−1 for Cy3). Cells were detached by Trypsin/EDTA and assayed for fluorescence by FACS (BD 7 laser LSR2 for nanoprobes with IR-783; BD 3 laser LSR2 for nanoprobes with Fluorescein or Cy3).

[4] = Quantum yield determination; assay type: physicochemical
Protocol: Quantum yields were determined as described in Demas et al., “Measurement of photoluminescence quantum yields. Review”, Journal of Physical Chemistry 75, 991-1024 (1971), and Shao et al., “Facile Synthesis of Monofunctional Pentamethine Carbocyanine Fluorophores. Dyes and pigments: an international journal 90, 119-122 (2011). For IR-783 a reference quantum yield of 0.043 was used (see Li et al., “Synthesis and characterization of glucosamine-bound near-infrared probes for optical imaging”, Organic letters 8, 3623-3626, 2006); for fluorescein a reference quantum yield was […] (see Sjoback et al., “Absorption and florescence properties of fluorescein”, Spectrohimica Acta Part A 51, L7-L21, 1995). For Cy3 a reference quantum yield of 0.31 was used (Luminprobe Inc). For PN(783)'s, excitation was at 730 nm and emission spectra were recorded from 765 nm to 870 nm in PBS and maximum emission used. For PN(545)'s, excitation was at 515 nm and emission spectra were recorded from 538 nm to 700 nm in PBS and maximum emission used. For PN(497)'s, excitation was at 450 nm and emission spectra were recorded from 475 nm to 620 nm in PBS and maximum emission used. Absorbance of each probe was adjusted less than 0.1. Measurements were made in triplicate and are expressed as mean±SD.

[5] = literature/vendor reference value; cited from earlier work
[6] = Probe volume determination by FPLC (Superdex 75, globular protein standards); assay type: physicochemical
Protocol: Size (volume) was determined by FPLC using an ÄKTA Purifier 10 and Superdex™ 75 10/300 GL column (GE Healthcare Lifesciences) with a running buffer of 0.05 M sodium phosphate, 0.15 M NaCl (0.1% Tween, pH 7.2) and flow rate of 0.5 ml/min. The protein standards (Gel Filtration Calibration Kit LMW, code no. 28-4038-41, GE Healthcare) (0.3 mg/ml, mixture of Aprotinin, Ribonuclease A, Ovalbumin, and Conalbumin) and Blue Dextran 2000 were used. To obtain volumes, Mr (apparent molecular weight based on size exclusion retention) was plotted versus Kav. Kav=(Ve−Vo)/[…], Vt=total volume, Ve=elution volume, Vo=void volume.

[7] = Diffusion and elimination after intramuscular administration (surface fluorescence); assay type: in vivo; details: nude mouse, front extremity, 24 hours post injection
Protocol: The diffusion and elimination of the non-integrin binding RAD probe after an intramuscular administration in the front extremity of a nude mouse was visualized. Using surface fluorescence, the probe rapidly diffused through the extremity and shoulder of the mouse, with vascular uptake and renal elimination evident from bladder fluorescence at 4 hours post injection.

[8] = system: GFP expressing BT-20 breast carcinoma xenograft; assay: Tumor surface fluorescence after peritumoral (DMR) or IV injection; assay type: in vivo, mouse; details: BT-20 tumors, 24 hours post injection
Protocol: Day 1, BT-20 cells were planted into 24-well plate at 750,000 cells/well in culture medium (EMEM with 10% FBS). Day 2, the old culture medium was replaced with new culture medium containing lenti-virus (1×10^8 particles/mL) and protamine sulphate (American Pharmaceutical Partners, Los Angelus, Calif.; 10 mg/mL; 1:500 of total volume of medium). Day 3, after 16 hours of transfection, medium was changed to the culture medium (EMEM with 10% FBS). 8 hours later, green cells could be seen via fluorescence microscope.
All animal experiments were approved by the Institutional Review Committee of Massachusetts General Hospital. Female nude mice (25-30 g; 6-8 weeks old; nu/nu; Cox 7, Massachusetts General Hospital, Boston, Mass.) were anesthetized with isoflurane/O2. Tumor cell implantation was performed both sides around the shoulder. 200 μl of cell suspension containing 10^6 cells in Matrigel (BD) was injected subcutaneously. Tumor cells were inoculated for 7 to 10 days.
The diffusion and molecular retention required of the DMR technique with a tumor bearing model were investigated. We peritumorally injected the RGD probe into an animal bearing two GFP expressing BT-20 breast carcinomas and monitored tumor GFP fluorescence and probe fluorescence as a function of time after injection. The non-integrin binding RAD probe was injected into a second animal also bearing two tumors. Overlaying purple probe fluorescence over green GFP yields white. […] Tumor surface fluorescence from both probes was quantified by the use of solution standards.
In FIG. 8a), two animals bearing two tumors were PT injected with the RGD probe or RAD probe as indicated and surface fluorescence images were obtained. […] In FIG. 8b), quantitation of tumor surface fluorescence after injections of the RGD or RAD probes as above. Surface fluorescence was quantified through the use of standard solutions.
To compare the DMR and intravenous (IV) methods, surface fluorescence images of tumor GFP and RGD probe fluorescence were obtained with skin removed, and overlays from the two signals obtained. With both DMR and IV administration, probe fluorescence extended beyond tumor GFP margins to a stromal area beyond the tumor. However, tumor fluorescence was far higher with DMR than IV injection, even though dose was far lower (50 pmoles/mouse by DMR versus 2000 pmoles/mouse by IV).
In FIG. 9a), skin covering GFP-BT-20 tumor was removed. Shown are visible GFP fluorescence, probe (CyAL5.5) fluorescence, and the overlay of GFP and probe fluorescence plus an X-ray image. Green GFP plus purple CyAL5.5 fluorescence yielded a white overlaid image. In FIG. 9b), with DMR or IV, probe fluorescence included a stromal zone of integrin binding surrounding the tumor was seen. […]

Q: Which results are given for “(DOTA)Lys(PEG30K)-Cys(Cy3) [PN(545)10.0]”?
A: Volume FPLC [1]: 435 kDa; cellular localisation in tumor sections [2]: seen in mCherry/HT29 cells; Cell NSB (percent of cells with fluorescence higher than unstained cell) [3]: 15%; Quant. Yield ([4]; Table 5, in PBS): 0.61

Q: With Cy3 as the substance, how does the reference quantum yield [5] read?
A: 0.31

Q: With “DOTA-Lys(CyAL5.5)-Lys(5 kDa PEG)- βAla -Lys(sPEG-RAD) [Compound 7b]” as the substance, how does the “Equiv. Vol.” value ([6]; FPLC, globular protein equivalent volume) read?
A: 25 kDa

Q: What about the “Molecular Volume” value ([6]; Table 3A, tetrapeptides) of the same substance?
A: 20 kDa

Q: And the “Molecular Volume” value ([6]; Table 4, DMR probes)?
A: 20-30 kDa

Q: And the “clearance from intramuscular injection site” value [7]?
A: detectable fluorescence was not found

Q: And the “tumor retention of probe fluorescence after peritumoral injection” value [8]?
A: cleared by 24 hours post injection

Q: And the “Quantum Yield” value ([4]; Table 3A, CyAL5.5 tetrapeptides)?
A: 0.20

Q: And the “Quantum Yield” value ([4]; Table 4, DMR probes)?
A: 0.20
